Test results as given in paper PMC4960622, “Crystal structures of RidA, an important enzyme for the prevention of toxic side products” (Scientific Reports, 2016).
Changes are numbered by the printed parent chain. Names and notes keep the numbering of the source.

Legend:
[1] = target: the molecule itself; test: SEC; 0.5 mg of RidA WT and mutants loaded separately onto a Superdex-75 size-exclusion column; protein standards as size reference
[2] = target: the molecule itself; test: crystal structure; apo form; space group H3, one monomer per asymmetric unit, trimer by the crystallographic 3-fold axis; sitting drop, 18% PEG 3350, 0.1 M MES pH 6.0, 25 °C

B1: Arabidopsis thaliana RidA, construct starting from S68 (AtRidA-S68), wild type (enzyme, UniProt Q94JQ4 68-187, looked up)
chain: STEKAPAALGPYSQAIKANNLVFLSGVLGLIPETGKFVSESVEDQTEQVLKNMGEILKASGADYSSVVKTTIMLADLADFKTVNEIYAKYFPAPSPARSTYQVAALPLNAKIEIECIATL
notes: Reactive Intermediate Deaminase A (RidA), Arabidopsis thaliana, GenBank AY060547.1, residues S68-L187 (without the predicted chloroplast transit peptide); Residues S80-L187 are resolved in the crystal structures; also called RidA WT; apo-AtRidA; source: E. coli BL21 (DE3), purified (Ni-NTA, PreScission cleavage, Histrap); not shown: His6, N-terminal, cleaved
In the case of B1, the “stoichiometry N” value [1] is reported as ~3 and the “stoichiometry N” value [2] is reported as 3.

B2: AtRidA-S68 E182A (enzyme, Arabidopsis thaliana, UniProt Q94JQ4 68-187, looked up)
chain: B1 chain with E115A
notes: Reactive Intermediate Deaminase A (RidA), Arabidopsis thaliana, GenBank AY060547.1, residues S68-L187, made by QuikChange on the RidA-S68/pET28a(+) plasmid; The purification of the mutants is not described separately; probably as for the wild type (tag cleaved); also called RidA-E182A; source: E. coli BL21 (DE3), purified
B2: binds [1].

B3: AtRidA-S68 S80A (enzyme, Arabidopsis thaliana, UniProt Q94JQ4 68-187, looked up)
chain: B1 chain with S13A
notes: Reactive Intermediate Deaminase A (RidA), Arabidopsis thaliana, GenBank AY060547.1, residues S68-L187, made by QuikChange on the RidA-S68/pET28a(+) plasmid; The purification of the mutants is not described separately; probably as for the wild type (tag cleaved); also called RidA-S80A; source: E. coli BL21 (DE3), purified
B3: binds [1].

B4: AtRidA-S68 S166A (enzyme, Arabidopsis thaliana, UniProt Q94JQ4 68-187, looked up)
chain: B1 chain with S99A
notes: Reactive Intermediate Deaminase A (RidA), Arabidopsis thaliana, GenBank AY060547.1, residues S68-L187, made by QuikChange on the RidA-S68/pET28a(+) plasmid; The purification of the mutants is not described separately; probably as for the wild type (tag cleaved); also called RidA-S166A; source: E. coli BL21 (DE3), purified
B4: binds [1].

B5: AtRidA-S68 K136R (enzyme, Arabidopsis thaliana, UniProt Q94JQ4 68-187, looked up)
chain: B1 chain with K69R
notes: Reactive Intermediate Deaminase A (RidA), Arabidopsis thaliana, GenBank AY060547.1, residues S68-L187, made by QuikChange on the RidA-S68/pET28a(+) plasmid; The purification of the mutants is not described separately; probably as for the wild type (tag cleaved); also called RidA-K136R; source: E. coli BL21 (DE3), purified
B5: binds [1].

B6: AtRidA-S68 S92A (enzyme, Arabidopsis thaliana, UniProt Q94JQ4 68-187, looked up)
chain: B1 chain with S25A
notes: Reactive Intermediate Deaminase A (RidA), Arabidopsis thaliana, GenBank AY060547.1, residues S68-L187, made by QuikChange on the RidA-S68/pET28a(+) plasmid; The purification of the mutants is not described separately; probably as for the wild type (tag cleaved); also called RidA-S92A; source: E. coli BL21 (DE3), purified
B6: binds [1].
